The values below come from article PMC4357008.

Data set [1] is described as follows: confocal imaging, filopodia shaft/cell body ratio, Lck-mCherry normalised. Particulars: glycan lost; control: mEGFP-EAAT2 wild type.
Data set [2] is described as follows: confocal imaging, filopodia tip/shaft intensity ratio, COS-7. The note with it: glycan lost; control: mEGFP-EAAT2 wild type.

B1: EAAT2: EAAT2ΔG (protein)
parent chain: MASTEGANNMPKQVEVRMHDSHLSSDEPKHRNLGMRMCDKLGKNLLLSLTVFGVILGAVCGGLLRLASPIHPDVVMLIAFPGDILMRMLKMLILPLIISSLITGLSGLDAKASGRLGTRAMVYYMSTTIIAAVLGVILVLAIHPGNPKLKKQLGPGKKNDEVSSLDAFLDLIRNLFPENLVQACFQQIQTVTKKVLVAPPSEEANTTKAVISMLNETMNEAPEETKIVIKKGLEFKDGMNVLGLIGFFIAFGIAMGKMGEQAKLMVEFFNILNEIVMKLVIMIMWYSPLGIACLICGKIIAIKDLEVVARQLGMYMITVIVGLIIHGGIFLPLIYFVVTRKNPFSFFAGIFQAWITALGTASSAGTLPVTFRCLEDNLGIDKRVTRFVLPVGATINMDGTALYEAVAAIFIAQMNGVILDGGQIVTVSLTATLASIGAASIPSAGLVTMLLILTAVGLPTEDISLLVAVDWLLDRMRTSVNVVGDSFGAGIVYHLSKSELDTIDSQHRMQEDIEMTKTQSIYDDKNHRESNSNQCVYAAHNSVVIDECKVTLAANGKSADCSVEEEPWKREK
As to B1, the “localisation_or_trafficking, other: shaft/cell body density ratio” value in data set [1] is given as “decreases, 1.7 vs 2.7”. In data set [2], the “localisation_or_trafficking, other: tip/shaft density ratio” value is recorded as “increases, 2.8 vs 1.5”.
